We go through 5 molecules from patent US20240293588A1, “THERAPEUTIC CONJUGATES” (Starpharma Pty Ltd, priority 2020, published 2024).

In one experiment the target is ErbB2-ECD (Homo sapiens, UniProt P04626). In words: SPR binding studies with immobilized ErbB2-ECD. The conditions noted are these: result in words. The protocol: Using a ProteOn XPR36 instrument, ErbB2-ECD was immobilized at 25° C. onto a GLC sensor chip surface (Bio-Rad), with HBS-P+ running buffer (10 mM HEPES, pH 7.4, 150 mM NaCl, 0.05% Tween 20). Standard amine coupling methodology described in Bio-Rad's amine coupling kit was utilized for this immobilization. Lane 1 was activated with a 50:50 mixture of EDC (0.5 mM) and sulfo-NHS (0.125 mM). ErbB2 protein was diluted to […] in 10 mM sodium acetate, pH 5.0 and injected over the activated surface channel. Any remaining activated sites were blocked with 1 M ethanolamine-HCl, pH 8.5.
All SPR binding experiments were performed at 25° C. using HBS-EP+/BSA (10 mM HEPES, pH 7.4, 150 mM NaCl, 3 mM EDTA, 0.05% Tween20, 0.1 mg/ml BSA) as the instrument running buffer (RB). Following immobilization procedures, various concentrations of anti-ErbB2 affibodies and their MMAE-dendrimer conjugates were injected at 60 μl/min over immobilized ErbB2 proteins and their association monitored for 90 sec. Running buffer was subsequently injected over bound Ab-ErbB2 complexes and dissociation monitored for up to 60 min. […] All binding measurements were performed in triplicate.
Collected experimental data were processed using Scrubber-Pro software (www.biologic.com.au). […]
For orientation: SPR reads the build-up and loss of mass on a sensor chip optically.

Experiment [1] has as its target T1, HER2 (human epidermal growth factor receptor 2) on cells (human, UniProt P04626 23-1255).
T1 construct: whole, on cells; also called ERBB2; HER2 receptor
The experiment in a line: flow cytometry (Cy5), MDA-MB-231/HER2 cells, 1 h. (In flow cytometry, cells or beads pass a laser one at a time.)

The target in experiment [2] is T1, HER2 (human epidermal growth factor …). In words: flow cytometry (Cy5), MDA-MB-231/HER2 cells, 2 h.
Experiment [3] shares this target. The experiment in a line: flow cytometry (Cy5), MDA-MB-231/HER2 cells, 4 h.
Experiment [4] has the same target. The experiment in a line: flow cytometry (Cy5), MDA-MB-231/HER2 cells, 24 h.
For experiment [5] the target is unchanged. In words: flow cytometry (Cy5), MDA-MB-231/HER2 cells, 0.5 h.
Experiment [6] shares this target. In words: flow cytometry (Cy5), MDA-MB-231/HER2 cells, 0.25 h.
The target is the same in experiment [7]. In words: flow cytometry (Cy5), MDA-MB-231/HER2 cells, 3.33 nM, 37 °C, 1 h.
The target is the same in experiment [8]. In words: flow cytometry (Cy5), MDA-MB-231/HER2 cells, 3.33 nM, 37 °C, 2 h.
The target is the same in experiment [9]. The experiment in a line: flow cytometry (Cy5), MDA-MB-231/HER2 cells, 3.33 nM, 37 °C, 4 h.
The target is the same in experiment [10]. In words: flow cytometry (Cy5), MDA-MB-231/HER2 cells, 3.33 nM, 37 °C, 24 h.
Experiment [11] has the same target. In words: flow cytometry (Cy5), MDA-MB-231/HER2 cells, 3.33 nM, 37 °C, 0.5 h. The method, then: (§1) After incubation, non-binding/non-associating particles were removed from adherent cells by gently washing with DPBS three times (300 μL/well). Cells were removed from plates by treatment with TrypLE™ Express Enzyme (1×), no phenol red (150 μL/well) for 5-10 min at room temperature. The plates were then placed on ice. Cellular binding and association of sample were then determined through flow cytometry by the acquisition of the signal from Cy5.
(§2) To measure internalisation kinetics, nanobody-dendrimer was incubated with cells for 24, 4, 1, 0.5, and 0.1 hours at 37° C. before unbound nanobody-dendrimer was removed by washing and analysed by flow cytometry.

Experiment [12] shares this target. The experiment in a line: flow cytometry (Cy5), MDA-MB-231/HER2 cells, 3.33 nM, 37 °C, 0.25 h. The method, then:
as §1, §2

The target is the same in experiment [13]. The experiment in a line: flow cytometry (Cy5), HER2-positive MDA-MB-453 cells, triplicate wells.
Experiment [14] has the same target. The experiment in a line: flow cytometry (Cy5), MDA-MB-231 parental cells (HER2 lo, control), 1 h.
For experiment [15] the target is unchanged. The experiment in a line: flow cytometry (Cy5), MDA-MB-231 parental cells (HER2 lo, control), 2 h.
Experiment [16] shares this target. The experiment in a line: flow cytometry (Cy5), MDA-MB-231 parental cells (HER2 lo, control), 4 h.
The target is the same in experiment [17]. In words: flow cytometry (Cy5), MDA-MB-231 parental cells (HER2 lo, control), 24 h.
Experiment [18] shares this target. In words: flow cytometry (Cy5), MDA-MB-231 parental cells (HER2 lo, control), 0.5 h.
Experiment [19] shares this target. In words: flow cytometry (Cy5), MDA-MB-231 parental cells (HER2 lo, control), 0.25 h.
For experiment [20] the target is unchanged. In words: flow cytometry (Cy5), MDA-MB-231 parental cells (HER2 lo, control), 3.33 nM, 37 °C, 1 h.
The target is the same in experiment [21]. In words: flow cytometry (Cy5), MDA-MB-231 parental cells (HER2 lo, control), 3.33 nM, 37 °C, 2 h. The protocol: as §1, §2
Experiment [22] has the same target. The experiment in a line: flow cytometry (Cy5), MDA-MB-231 parental cells (HER2 lo, control), 3.33 nM, 37 °C, 4 h. The protocol:
as §1, §2

Experiment [23] has the same target. The experiment in a line: flow cytometry (Cy5), MDA-MB-231 parental cells (HER2 lo, control), 3.33 nM, 37 °C, 24 h. The protocol: as §1, §2
Experiment [24] has the same target. The experiment in a line: flow cytometry (Cy5), MDA-MB-231 parental cells (HER2 lo, control), 3.33 nM, 37 °C, 0.5 h. The protocol: as §1, §2
Experiment [25] shares this target. In words: flow cytometry (Cy5), MDA-MB-231 parental cells (HER2 lo, control), 3.33 nM, 37 °C, 0.25 h. The protocol:
as §1, §2

As for “Azido-PEG24CO—[N(PN)2][Lys]2[Lys]4[Lys]8[(α-NHGlu-vc-PAB-MMAE)8(ε-NH-COPEG2000)8], G3 [Compound 66]”, at ErbB2-ECD, the “binding to ErbB2 proteins (SPR)” value is “No binding”.

On to “Azido-PEG24CO—[N(PN)2][Lys]2[Lys]4[Lys]8[(α-NHGlu-vc-PAB-MMAE)8(ε-NH-COPEG1100)8], G3 [Compound 65]”, for which the “binding to ErbB2 proteins (SPR)” value on ErbB2-ECD is listed as “No binding”.

B1: Nanobody*-N3/DBCO-NHCO-PEG12TCO/(MeTzPh)PEG4CO-NHPEG24CO-[N(PN)2][Lys]4[Lys]8[((α-NHCy5)1(α-NHAc)7)(ε-NH-COPEG1100)8], Compound 124 (VHH)
VHH: EVQLVESGGSLVQPGGSLRLSCAASGFTFDDYAMSWVRQVPGKGLEWVSSINWSGTHTDYADSVKGRFTISRNNANNTLYLQMNSLKSEDTAVYYCAKNWRDAGTTWFEKSGSAGQGTQVTVSS
modifications: C-terminal # (unnatural amino acid, p-azido-phenylalanine) clicked to DBCO-NHCO-PEG12-TCO, joined to the tetrazine at the core of the G3 lysine dendrimer Compound 52 (1 Cy5, 7 acetyl, 8 PEG1100)
notes: also called G3 2D3 conjugated dendrimer
With B1, the MFI was 294 in experiment [1]; 445 in experiment [2]; 800 in [3]; 1110 in experiment [4]; 226 in [5]; 235 in experiment [6]. Moreover, the MFI stood at 50.8 in [13]; 237 in experiment [14]; 241 in experiment [15]; 250 in [16]; 224 in experiment [17]; 228 in [18]. In experiment [19], the MFI was 246. In addition, the “percent of cellular association” value in experiment [7] is 2.57%; in [8] it was 17.4%; in experiment [9], 50.6%; in experiment [10], 60.7%; in experiment [11] it was 0.6%; in experiment [12], 0.67%. Further, the “percent of cellular association” value in experiment [20] turned out to be 0.8%; in [21] it was 1.13%; in experiment [22], 0.93%; in experiment [23], 0.83%; in experiment [24] it was 0.87%; in experiment [25] it was 1.07%.

B2: Nanobody*-N3/DBCO-NHCO-PEG12TCO/((MeTzPh)PEG4CO-NHPEG24CO-[N(PN)2][Lys]2[Lys]4[Lys]8[Lys]16[((α-NHCy5)1(α-NHAc)15)(ε-NH-COPEG1100)16, Compound 125 (VHH)
VHH: B1 VHH
modifications: C-terminal # (unnatural amino acid, p-azido-phenylalanine) clicked to DBCO-NHCO-PEG12-TCO, joined to the tetrazine at the core of the G4 lysine dendrimer Compound 53 (1 Cy5, 15 acetyl, 16 PEG1100)
notes: also called G4 2D3 conjugated dendrimer
Take B2: the MFI was 241 in experiment [1]; 342 in [2]; 611 in experiment [3]; 1010 in experiment [4]; 224 in experiment [5]; 215 in experiment [6]. For the same molecule, the MFI in experiment [13] stood at 158; in [14] it was 230; in experiment [15], 236; in [16], 246; in [17] it was 219; in experiment [18] it was 223. In addition, the MFI in experiment [19] is 227. Also, the “percent of cellular association” value worked out at 0.77% in experiment [7]; 6.13% in experiment [8]; 36% in [9]; 56.3% in experiment [10]; 0.67% in experiment [11]; 0.57% in [12]. In addition, the “percent of cellular association” value in experiment [20] was 1%; in experiment [21], 0.77%; in experiment [22], 0.83%; in experiment [23], 0.87%; in [24], 0.53%; in experiment [25], 0.87%.

B3: Nanobody*-N3/DBCO-NHCO-PEG12TCO/(MeTzPh)PEG4CO-NHPEG24CO-[N(PN)2][Lys]2[Lys]4[Lys]8[Lys]16[Lys]32[((α-NHCy5)1(α-NHAc)31)(ε-NH-COPEG1100)32], Compound 126 (VHH)
VHH: B1 VHH
modifications: C-terminal # (unnatural amino acid, p-azido-phenylalanine) clicked to DBCO-NHCO-PEG12-TCO, joined to the tetrazine at the core of the G5 lysine dendrimer Compound 54 (1 Cy5, 31 acetyl, 32 PEG1100)
notes: G5 2D3 conjugated dendrimer
Turning to B3, the MFI in [1] was 295; in experiment [2], 436; in experiment [3], 1040; in [4], 2750; in experiment [5] it was 237; in experiment [6] it was 207. Also, the MFI in experiment [13] was determined as 177; in experiment [14], 254; in experiment [15], 233; in experiment [16] it was 247; in experiment [17], 223; in [18], 245. Besides, the MFI in [19] was 195. The “percent of cellular association” value in [7] stood at 2.8%; in [8], 18%; in experiment [9] it was 59.8%; in [10] it was 73.5%; in experiment [11] it was 0.7%; in experiment [12] it was 0.43%. The “percent of cellular association” value in experiment [20] was determined as 1.37%; in experiment [21], 0.73%; in [22], 0.67%; in [23] it was 0.8%; in experiment [24], 1.03%; in experiment [25] it was 0.53%.
